# Results taken from publication PMC5730846.
# B1: Tsc1-D-His6 (domain or fragment)
# chain: DGCSDSMVGHNEEASGHNGETKTPRPSSARGSSGSRGGGGSSSSSSELSTPEKPPHQRAGPFSSRWETTMGEASASIPTTVGSLPSSKSFLGMKARELFRNKSESQCDEDGMTSSLSESLKTELGKDLGVEAKIPLNLDGPHPSPPTPDSVGQLHIMDYNETHHEHS
# Target: recombinant Hsp90α (human) (UniProt P07900)
binder,measurement,value
B1,inhibition of Hsp90α ATPase activity in vitro (PiPer Phosphate Assay) by 100 nM Tsc1-D,72%
